The results in this text go back to patent US20240018247A1 (MUSC FOUNDATION FOR RESEARCH DEVELOPMENT, published 2024).

The target of assay [1] is T1, P-Selectin-His tag (mouse) (mouse, UniProt Q01102 42-709, limits assumed).
T1 construct: also called mouse P-selectin; mouse antigen P-Selectin; not shown: His tag
T1 sequence (looked up): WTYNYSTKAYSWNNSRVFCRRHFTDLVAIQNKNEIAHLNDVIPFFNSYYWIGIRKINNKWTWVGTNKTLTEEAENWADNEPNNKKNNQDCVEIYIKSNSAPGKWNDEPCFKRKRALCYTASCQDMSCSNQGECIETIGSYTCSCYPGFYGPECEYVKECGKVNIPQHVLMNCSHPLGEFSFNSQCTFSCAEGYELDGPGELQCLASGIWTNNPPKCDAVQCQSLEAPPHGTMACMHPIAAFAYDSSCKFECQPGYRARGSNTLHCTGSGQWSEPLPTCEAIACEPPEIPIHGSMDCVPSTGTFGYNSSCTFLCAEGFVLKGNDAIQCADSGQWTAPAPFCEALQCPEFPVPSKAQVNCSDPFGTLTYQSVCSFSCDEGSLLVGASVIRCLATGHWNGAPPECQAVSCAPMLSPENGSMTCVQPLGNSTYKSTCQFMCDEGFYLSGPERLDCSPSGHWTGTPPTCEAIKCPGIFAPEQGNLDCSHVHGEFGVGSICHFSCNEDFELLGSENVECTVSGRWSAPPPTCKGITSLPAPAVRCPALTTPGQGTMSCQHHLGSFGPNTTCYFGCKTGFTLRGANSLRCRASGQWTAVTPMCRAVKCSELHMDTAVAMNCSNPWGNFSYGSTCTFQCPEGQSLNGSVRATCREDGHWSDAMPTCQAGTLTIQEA
Briefly: SPRi (PlexArray HT), mouse P-Selectin-His printed on chip, fusion protein as analyte, 25 C. On the procedure: FIG. 20A through FIG. 20C depict a representative experimental evaluation of the binding affinity of mouse antigen P-Selectin to B.PselscFv-Crry and NB.PselscFv-Crry. SPR binding assays were performed to measure binding affinity KD and kinetic parameters ka, kd of B.PselscFv-Crry and NB.PselscFv-Crry. The ligand is P-Selectin-His tag (mouse) which was printed onto the chip. The analytes are B.PselscFv-Crry and NB.PselscFv-Crry. After data collection with SPR and kinetics fitting and analysis, the KD, ka, and kd were calculated. FIG. 20A depicts exemplary kinetics fitting curves of P-Selectin to B.PselscFv-Crry. FIG. 20B depicts exemplary kinetics fitting curves of P-Selectin to NB.PselscFv-Crry.
To measure binding affinity, surface plasmon resonance was used with mouse P-selectin as the immobilized ligand and B.PselscFv-Crry (FIG. 20A) and NB.PselscFv-Crry (FIG. 20B) as the analytes. Various concentrations of P-Selectin dissolved in water were manually printed onto the bare gold-coated (thickness 47 nm) PlexArray Nanocapture Sensor Chip (Plexera Bioscience, Seattle, WA, US) at 40% humidity. Each concentration was printed in replicate, and each spot contained 0.2 μL of sample solution. The chip was incubated in 80% humidity at 4° C. for overnight, and rinsed with 10×PBST for 10 min, 1×PBST for 10 min, and deionized water twice for 10 min. The chip was then blocked with 5% (w/v) non-fat milk in water overnight, and washed with 10×PBST for 10 min, 1×PBST for 10 min, and deionized water twice for 10 min before being dried under a stream of nitrogen prior to use. SPRi measurements were performed with PlexAray HT (Plexera Bioscience, Seattle, WA, US). Collimated light (660 nm) passes through the coupling prism, reflects off the SPR-active gold surface, and is received by the CCD camera. Buffers and samples were injected by a non-pulsatile piston pump into the 30 μL flowcell that was mounted on the coupling prim.

For the next assay, the target named is T2, human P-selectin (human, UniProt P16109 42-771, limits assumed).
T2 construct: also called human P-selectin antigen
T2 sequence (looked up): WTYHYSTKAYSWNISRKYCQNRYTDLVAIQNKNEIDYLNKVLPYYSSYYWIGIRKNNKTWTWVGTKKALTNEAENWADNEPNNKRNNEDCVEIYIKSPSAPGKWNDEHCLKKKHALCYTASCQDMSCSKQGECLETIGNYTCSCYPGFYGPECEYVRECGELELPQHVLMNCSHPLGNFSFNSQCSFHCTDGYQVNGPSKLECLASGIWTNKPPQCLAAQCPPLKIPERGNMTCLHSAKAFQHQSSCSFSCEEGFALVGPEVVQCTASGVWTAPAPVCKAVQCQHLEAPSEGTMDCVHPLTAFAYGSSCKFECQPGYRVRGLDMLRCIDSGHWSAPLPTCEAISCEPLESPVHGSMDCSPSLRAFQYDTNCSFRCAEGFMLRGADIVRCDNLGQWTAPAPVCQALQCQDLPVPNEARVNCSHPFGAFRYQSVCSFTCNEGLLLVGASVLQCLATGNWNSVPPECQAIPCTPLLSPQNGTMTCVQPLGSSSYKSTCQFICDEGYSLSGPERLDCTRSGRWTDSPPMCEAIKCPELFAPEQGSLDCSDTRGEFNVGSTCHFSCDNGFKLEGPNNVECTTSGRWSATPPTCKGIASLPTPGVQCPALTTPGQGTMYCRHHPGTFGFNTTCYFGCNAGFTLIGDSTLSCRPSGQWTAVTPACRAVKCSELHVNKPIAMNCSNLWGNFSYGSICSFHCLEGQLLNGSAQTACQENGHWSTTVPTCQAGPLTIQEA
Kind of assay: ELISA binding assay on human P-selectin, OD 450. On the procedure: To evaluate the ability of B.PselscFv-Crry and NB.PselscFv-Crry to inhibit complement activation, a zymosan A bead assay was performed. Briefly, flow cytometric analysis of C3 deposition on zymosan A particles (SigmaAldrich) was performed and the extent of complement inhibition was normalized by the subtraction of post-IRI complement deposition levels from their baseline levels. Both B.PSelscFv-Crry and NB.PSelscFv-Crry constructs inhibit complement activation in a dose-dependent manner (FIG. 21A). Further, to evaluate the binding of B.PselscFv-Crry and NB.PselscFv-Crry to human P-selectin, an ELISA was performed. Briefly, non-blocking and blocking fusion proteins (NB.PselscFv-Crry and B.PselscFv-Crry, respectively) were plated at varying doses in addition to varying doses of C2-Crry as a negative control.

B1: NB.PSelscFv-Crry (anti-pselectin 2.3scFv-Crry, non-blocking) (scFv)
chain: QIQLVLSGPELKKPGESVKISCKASGYTFTTYGMSWVKQAPGKGLKWMGWINTSSGVPTYADDFKGRFAFSLETSASTAYLQINNLKNEDTATYFCARGGGYYGAYYFYYWGQGTTLTVSSGGGGSGGGGSGGGGSDIQMTQSPASLSASVGETVTITCRTSDNINSYLAWYLQRQGKSPQLLVYNAKTLTEGVPSRFSGSGSGTQFSLKINSLQPEDFGSYYCQHHYGPPPTFGGGTKLEIKGGGGSGGGGSCPAPSQLPSAKPINLTDESMFPIGTYLLYECLPGYIKRQFSITCKQDSTWTSAEDKCIRKQCKTPSDPENGLVHVHTGIQFGSRINYTCNQGYRLIGSSSAVCVITDQSVDWDTEAPICEWIPCEIPPGIPNGDFFSSTREDFHYGMVVTYRCNTDARGKALFNLVGEPSLYCTSNDGEIGVWSGPPPQCIELNKCTPPPYVENAVMLSENRSLFSLRDIVEFRCHPGFIMKGASSVHCQSLNKWEPELPSCFKGVICRLPQEMSGFQKGLGMKKEYYYGENVTLECEDGYTLEGSSQSQCQSDGSWNPLLAKCVSRSIIEGRHHHHHH
notes: also called Psel.NB; Psel-NB
In assay [1], B1 registered a Kd of 630 nM, an off-rate (koff) of 0.00179 s⁻¹ and a kon of 2840 M⁻¹ s⁻¹. Further, the “EC50 (read off the curve)” value in the assay with human P-selectin is ~0.06 µg/mL.
